Experimental data taken from patent publication US20220389406A1.

Target: HLA-A*02:01-restricted MART-1 epitope, A*02:0
Test: cell-based or functional assay

frequency of the TCR in post-real-selection (CD137-positive, sorted) against pre-selection polyclonal TCR-T cells, by NGS: 10 fold
Substance: DMF4 (TCR)
